Assay results as given in article PMC5154475, “Dual Therapeutic Action of a Neutralizing Anti-FGF2 Aptamer in Bone Disease and Bone Cancer Pain” (Molecular Therapy, 2016).

Target: T1, mouse recombinant FGF R3(IIIc)-Fc (mouse, UniProt Q61851 21-369)
T1 construct: FGF receptor 3, (IIIc) form, mouse, extracellular domain fused to IgG-Fc portion; also called FGFR3 (murine); source: bought: R&D Systems
T1 sequence (looked up): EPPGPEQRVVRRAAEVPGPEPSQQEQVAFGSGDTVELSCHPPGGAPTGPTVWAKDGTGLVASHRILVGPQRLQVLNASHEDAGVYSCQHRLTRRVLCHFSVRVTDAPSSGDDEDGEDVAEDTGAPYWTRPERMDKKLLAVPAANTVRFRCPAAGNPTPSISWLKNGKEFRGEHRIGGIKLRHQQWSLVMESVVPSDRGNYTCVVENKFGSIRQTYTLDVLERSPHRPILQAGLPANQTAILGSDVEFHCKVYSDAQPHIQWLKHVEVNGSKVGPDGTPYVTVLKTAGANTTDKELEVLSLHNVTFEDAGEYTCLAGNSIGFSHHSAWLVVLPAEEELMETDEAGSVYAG
Experiment: SPR; Biacore 2000; FGFR/Fc fusion proteins immobilised onto a CM5 sensor chip via prebound protein A (1,000 RUs); FGF2 injected with or without the RNA aptamer APT-F2; for FGFR1: receptor 100 nmol/l, FGF2 100 nmol/l, heparin 100 nmol/l, APT-F2 150 nmol/l
Details: both partners purified

B1: murine FGF2 (ligand, UniProt P15655 10-154, looked up)
chain: PALPEDGGAAFPPGHFKDPKRLYCKNGGFFLRIHPDGRVDGVREKSDPHVKLQLQAEERGVVSIKGVCANRYLAMKEDGRLLASKCVTEECFFFERLESNNYNTYRSRKYSSWYVALKRTGQYKLGSKTGPGQKAILFLPMSAKS
notes: Fibroblast growth factor 2, mouse, recombinant; also called mouse FGF2; source: bought: PEPROTECH
B1: binds.
